Measurements: US20190262431

Columns and labels:
recombinant Shp-2 = target: T1, recombinant Shp-2
T1 sequence (Q06124 2-593, species assumed, looked up): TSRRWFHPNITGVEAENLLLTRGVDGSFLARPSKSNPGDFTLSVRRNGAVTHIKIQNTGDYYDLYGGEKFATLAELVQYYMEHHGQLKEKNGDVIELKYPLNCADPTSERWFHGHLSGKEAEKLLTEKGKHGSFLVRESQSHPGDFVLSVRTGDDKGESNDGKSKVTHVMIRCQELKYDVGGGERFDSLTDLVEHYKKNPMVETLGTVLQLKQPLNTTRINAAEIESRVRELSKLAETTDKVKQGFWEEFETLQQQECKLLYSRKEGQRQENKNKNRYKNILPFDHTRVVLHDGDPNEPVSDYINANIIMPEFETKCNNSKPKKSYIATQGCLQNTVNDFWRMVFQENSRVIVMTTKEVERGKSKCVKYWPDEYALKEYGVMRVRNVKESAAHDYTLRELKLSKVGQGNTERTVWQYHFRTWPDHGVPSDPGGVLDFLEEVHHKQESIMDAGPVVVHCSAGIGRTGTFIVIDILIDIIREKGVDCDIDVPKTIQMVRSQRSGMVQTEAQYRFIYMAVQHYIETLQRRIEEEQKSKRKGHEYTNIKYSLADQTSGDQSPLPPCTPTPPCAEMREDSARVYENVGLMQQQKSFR

[1] = target: active (phosphorylated) human Syk (Merck Millipore), P43405
[2] = target: inactive (non-phosphorylated) human Syk-GST (Life technologies), P43405

Protein	in vitro poly-ubiquitination of recombinant Shp-2 (recombinant Shp-2)	in vitro poly-ubiquitination of recombinant active Syk (Western blot) [1]	in vitro poly-ubiquitination of inactive Syk (Syk-GST) (Western blot) [2]	in vitro poly-ubiquitination of active Syk (Western blot) [1]
full length human Cbl-b (Abnova) (protein) MANSMNGRNPGGRGGNPRKGRILGIIDAIQDAVGPPKQAAADRRTVEKTWKLMDKVVRLCQNPKLQLKNSPPYILDILPDTYQHLRLILSKYDDNQKLAQLSENEYFKIYIDSLMKKSKRAIRLFKEGKERMYEEQSQDRRNLTKLSLIFSHMLAEIKAIFPNGQFQGDNFRITKADAAEFWRKFFGDKTIVPWKVFRQCLHEVHQISSGLEAMALKSTIDLTCNDYISVFEFDIFTRLFQPWGSILRNWNFLAVTHPGYMAFLTYDEVKARLQKYSTKPGSYIFRLSCTRLGQWAIGYVTGDGNILQTIPHNKPLFQALIDGSREGFYLYPDGRSYNPDLTGLCEPTPHDHIKVTQEQYELYCEMGSTFQLCKICAENDKDVKIEPCGHLMCTSCLTAWQESDGQGCPFCRCEIKGTEPIIVDPFDPRDEGSRCCSIIDPFGMPMLDLDDDDDREESLMMNRLANVRKCTDRQNSPVTSPGSSPLAQRRKPQPDPLQIPHLSLPPVPPRLDLIQKGIVRSPCGSPTGSPKSSPCMVRKQDKPLPAPPPPLRDPPPPPPERPPPIPPDNRLSRHIHHVESVPSRDPPMPLEAWCPRDVFGTNQLVGCRLLGEGSPKPGITASSNVNGRHSRVGSDPVLMRKHRRHDLPLEGAKVFSNGHLGSEEYDVPPRLSPPPPVTTLLPSIKCTGPLANSLSEKTRDPVEEDDDEYKIPSSHPVSLNSQPSHCHNVKPPVRSCDNGHCMLNGTHGPSSEKKSNIPDLSIYLKGDVFDSASDPVPLPPARPPTRDNPKHGSSLNRTPSDYDLLIPPLGEDAFDALPPSLPPPPPPARHSLIEHSKPPGSSSRPSSGQDLFLLPSDPFVDLASGQVPLPPARRLPGENVKTNRTSQDYDQLPSCSDGSQAPARPPKPRPRRTAPEIHHRKPHGPEAALENVDAKIAKLMGEGYAFEEVKRALEIAQNNVEVARSILREFAFPPPVSPRLNL	No poly-ubiquitination of recombinant Shp-2 was detected in these assays	robust poly-ubiquitination of recombinant active Syk was observed		
human Cbl-b^29-483 (recombinant, GST fusion protein) (protein) IQDAVGPPKQAAADRRTVEKTWKLMDKVVRLCQNPKLQLKNSPPYILDILPDTYQHLRLILSKYDDNQKLAQLSENEYFKIYIDSLMKKSKRAIRLFKEGKERMYEEQSQDRRNLTKLSLIFSHMLAEIKAIFPNGQFQGDNFRITKADAAEFWRKFFGDKTIVPWKVFRQCLHEVHQISSGLEAMALKSTIDLTCNDYISVFEFDIFTRLFQPWGSILRNWNFLAVTHPGYMAFLTYDEVKARLQKYSTKPGSYIFRLSCTRLGQWAIGYVTGDGNILQTIPHNKPLFQALIDGSREGFYLYPDGRSYNPDLTGLCEPTPHDHIKVTQEQYELYCEMGSTFQLCKICAENDKDVKIEPCGHLMCTSCLTAWQESDGQGCPFCRCEIKGTEPIIVDPFDPRDEGSRCCSIIDPFGMPMLDLDDDDDREESLMMNRLANVRKCTDRQNSPVTSPGS			non-phosphorylated recombinant Syk showed strongly diminished poly-ubiquitination by Cbl-d^29-483	still exhibited poly-ubiquitination activity towards Syk
